± gives the uncertainty stated by the source.

The results in this text go back to the Human Domainome abundance scans (Beltran et al. 2025).

B1: Far upstream element-binding protein 1, residues 98 to 169; numbered along this chain, Q96AE4 (parent)
chain: RSVMTEEYKVPDGMVGFIIGRGGEQISRIQQESGCKIQIAPDSGGLPERSCMLTGTPESVQSAKRLLDQIVE

Variants of B1 are the subject of this data set. Briefly: abundance fitness (aPCA) (normalised: wild type 0, dead -1); higher = more abundant; growth selection in yeast, the domain comes from the species named. The following applies: Homo sapiens.
For the variant RSVMTEEYKVPDGMVGFIIGRQGEQISRIQQESGCKIQIAPDSGGLPERSCMLTGTPESVQSAKRLLDQIVE [G22Q], the abundance fitness is -0.014 ± 0.036. As for RSVMTEEYKVPDGMVGFIIGRIGEQISRIQQESGCKIQIAPDSGGLPERSCMLTGTPESVQSAKRLLDQIVE [G22I], the figure is -0.09 ± 0.048; as for RSVMTEEYKVPDGMVGFIIGRHGEQISRIQQESGCKIQIAPDSGGLPERSCMLTGTPESVQSAKRLLDQIVE [G22H], -0.021 ± 0.052; as for RSVMTEEYKVPDGMVGFIIGRGGNQISRIQQESGCKIQIAPDSGGLPERSCMLTGTPESVQSAKRLLDQIVE [E24N], -0.163 ± 0.074.

As to RSVMTEEYKVPDGMVGFIIGRGGGQISRIQQESGCKIQIAPDSGGLPERSCMLTGTPESVQSAKRLLDQIVE [E24G], the abundance fitness is -0.057 ± 0.025.

Consider RSVMTEEYKVPDGMVGFIIGRGGQQISRIQQESGCKIQIAPDSGGLPERSCMLTGTPESVQSAKRLLDQIVE [E24Q], for which the abundance fitness was -0.084 ± 0.039. The figure for RSVMTEEYKVPDGMVGFIIGRGGLQISRIQQESGCKIQIAPDSGGLPERSCMLTGTPESVQSAKRLLDQIVE [E24L] is -0.108 ± 0.03. The figure for RSVMTEEYKVPDGMVGFIIGRGGKQISRIQQESGCKIQIAPDSGGLPERSCMLTGTPESVQSAKRLLDQIVE [E24K] is -0.035 ± 0.041; for RSVMTEEYKVPDGMVGFIIGRGGSQISRIQQESGCKIQIAPDSGGLPERSCMLTGTPESVQSAKRLLDQIVE [E24S] it is -0.026 ± 0.029. For the variant RSVMTEEYKVPDGMVGFIIGRGGDQISRIQQESGCKIQIAPDSGGLPERSCMLTGTPESVQSAKRLLDQIVE [E24D], the abundance fitness is -0.064 ± 0.046. As for RSVMTEEYKVPDGMVGFIIGRGGWQISRIQQESGCKIQIAPDSGGLPERSCMLTGTPESVQSAKRLLDQIVE [E24W], the figure is 0.171 ± 0.032; as for RSVMTEEYKVPDGMVGFIIGRGGFQISRIQQESGCKIQIAPDSGGLPERSCMLTGTPESVQSAKRLLDQIVE [E24F], -0.013 ± 0.061. As for RSVMTEEYKVPDGMVGFIIGRGGMQISRIQQESGCKIQIAPDSGGLPERSCMLTGTPESVQSAKRLLDQIVE [E24M], the figure is -0.093 ± 0.041; as for RSVMTEEYKVPDGMVGFIIGRGGVQISRIQQESGCKIQIAPDSGGLPERSCMLTGTPESVQSAKRLLDQIVE [E24V], -0.072 ± 0.028. With RSVMTEEYKVPDGMVGFIIGRGGTQISRIQQESGCKIQIAPDSGGLPERSCMLTGTPESVQSAKRLLDQIVE [E24T], the abundance fitness was -0.035 ± 0.037. Turning to RSVMTEEYKVPDGMVGFIIGRGGCQISRIQQESGCKIQIAPDSGGLPERSCMLTGTPESVQSAKRLLDQIVE [E24C], the abundance fitness was -0.082 ± 0.042. The figure for RSVMTEEYKVPDGMVGFIIGRGGIQISRIQQESGCKIQIAPDSGGLPERSCMLTGTPESVQSAKRLLDQIVE [E24I] is -0.035 ± 0.049.

Consider RSVMTEEYKVPDGMVGFIIGRGGHQISRIQQESGCKIQIAPDSGGLPERSCMLTGTPESVQSAKRLLDQIVE [E24H], for which the abundance fitness came out at 0.026 ± 0.058.

For the variant RSVMTEEYKVPDGMVGFIIGRGGAQISRIQQESGCKIQIAPDSGGLPERSCMLTGTPESVQSAKRLLDQIVE [E24A], the abundance fitness was -0.032 ± 0.03. With RSVMTEEYKVPDGMVGFIIGRGGEDISRIQQESGCKIQIAPDSGGLPERSCMLTGTPESVQSAKRLLDQIVE [Q25D], the abundance fitness was -0.071 ± 0.04.

For RSVMTEEYKVPDGMVGFIIGRGGEGISRIQQESGCKIQIAPDSGGLPERSCMLTGTPESVQSAKRLLDQIVE [Q25G], the abundance fitness was -0.035 ± 0.022. The figure for RSVMTEEYKVPDGMVGFIIGRGGEMISRIQQESGCKIQIAPDSGGLPERSCMLTGTPESVQSAKRLLDQIVE [Q25M] is -0.027 ± 0.038; for RSVMTEEYKVPDGMVGFIIGRGGEHISRIQQESGCKIQIAPDSGGLPERSCMLTGTPESVQSAKRLLDQIVE [Q25H] it is -0.021 ± 0.043; for RSVMTEEYKVPDGMVGFIIGRGGEFISRIQQESGCKIQIAPDSGGLPERSCMLTGTPESVQSAKRLLDQIVE [Q25F] it is -0.242 ± 0.054.

RSVMTEEYKVPDGMVGFIIGRGGEAISRIQQESGCKIQIAPDSGGLPERSCMLTGTPESVQSAKRLLDQIVE [Q25A]: the abundance fitness is -0.088 ± 0.027. The figure for RSVMTEEYKVPDGMVGFIIGRGGENISRIQQESGCKIQIAPDSGGLPERSCMLTGTPESVQSAKRLLDQIVE [Q25N] is -0.107 ± 0.048. The figure for RSVMTEEYKVPDGMVGFIIGRGGECISRIQQESGCKIQIAPDSGGLPERSCMLTGTPESVQSAKRLLDQIVE [Q25C] is -0.054 ± 0.034; for RSVMTEEYKVPDGMVGFIIGRGGEKISRIQQESGCKIQIAPDSGGLPERSCMLTGTPESVQSAKRLLDQIVE [Q25K] it is -0.013 ± 0.038. For RSVMTEEYKVPDGMVGFIIGRGGEEISRIQQESGCKIQIAPDSGGLPERSCMLTGTPESVQSAKRLLDQIVE [Q25E], the abundance fitness amounted to 0.036 ± 0.03. The figure for RSVMTEEYKVPDGMVGFIIGRGGELISRIQQESGCKIQIAPDSGGLPERSCMLTGTPESVQSAKRLLDQIVE [Q25L] is -0.108 ± 0.027; for RSVMTEEYKVPDGMVGFIIYRGGEQISRIQQESGCKIQIAPDSGGLPERSCMLTGTPESVQSAKRLLDQIVE [G20Y] it is -0.279 ± 0.054; for RSVMTEEYKVPDGMVGFIIQRGGEQISRIQQESGCKIQIAPDSGGLPERSCMLTGTPESVQSAKRLLDQIVE [G20Q] it is -0.178 ± 0.034. The figure for RSVMTEEYKVPDGMVGFIIVRGGEQISRIQQESGCKIQIAPDSGGLPERSCMLTGTPESVQSAKRLLDQIVE [G20V] is -0.253 ± 0.027; for RSVMTEEYKVPDGMVGFIISRGGEQISRIQQESGCKIQIAPDSGGLPERSCMLTGTPESVQSAKRLLDQIVE [G20S] it is -0.078 ± 0.027; for RSVMTEEYKVPDGMVGFIIRRGGEQISRIQQESGCKIQIAPDSGGLPERSCMLTGTPESVQSAKRLLDQIVE [G20R] it is -0.112 ± 0.024. The figure for RSVMTEEYKVPDGMVGFIINRGGEQISRIQQESGCKIQIAPDSGGLPERSCMLTGTPESVQSAKRLLDQIVE [G20N] is -0.115 ± 0.048; for RSVMTEEYKVPDGMVGFIITRGGEQISRIQQESGCKIQIAPDSGGLPERSCMLTGTPESVQSAKRLLDQIVE [G20T] it is -0.182 ± 0.032; for RSVMTEEYKVPDGMVGFIIWRGGEQISRIQQESGCKIQIAPDSGGLPERSCMLTGTPESVQSAKRLLDQIVE [G20W] it is -0.321 ± 0.033.
